From the supplement of paper PMC7125110
± gives the standard error. This sample holds only a part of the variants without activity.

B1: glmS ribozyme (parent)
chain: AUAAAAGCGCCAGAACUACAGAAAUGUAGUUGACGAGGAGGAGGUUUAUCGAAUUUUCGGCGGAUGCCUCCAAA

Experiments:
Conditions in all cases: with glucosamine-6-phosphate
glucosamine-6-phosphate [1] = variants of: B1; assay: self-cleavage kobs at 160 uM GlcN6P; higher = faster cleavage; RNA array
In short: (§1)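 Glucosamine-6-phosphate (40 μM to 10 mM) in HEPES/KCl/Mg(OAc)2 buffer was flowed over sequenced MiSeq chips, and tiles were imaged over ~14 h. Barcoded ribozyme variants there had been transcribed in situ by E. coli RNA polymerase and were tracked through a hybridised Cy3 probe at 37 °C. One- or two-exponential decay fits to per-tile medians, normalised to baseline and to non-cleaving reference variants, gave kobs. kcat and KM came from weighted Michaelis–Menten fits across concentrations.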

glucosamine-6-phosphate [2] = variants of: B1; assay: self-cleavage kobs at 640 uM GlcN6P; higher = faster cleavage; RNA array
In short: as §1

glucosamine-6-phosphate [3] = variants of: B1; assay: self-cleavage kobs at 2500 uM GlcN6P; higher = faster cleavage; RNA array
In short: as §1

glucosamine-6-phosphate [4] = variants of: B1; assay: self-cleavage kobs at 10000 uM GlcN6P; higher = faster cleavage; RNA array
In short: as §1

Variant	self-cleavage kobs at 160 uM GlcN6P (glucosamine-6-phosphate [1]) [s⁻¹]	self-cleavage kobs at 640 uM GlcN6P (glucosamine-6-phosphate [2]) [s⁻¹]	self-cleavage kobs at 2500 uM GlcN6P (glucosamine-6-phosphate [3]) [s⁻¹]	self-cleavage kobs at 10000 uM GlcN6P (glucosamine-6-phosphate [4]) [s⁻¹]
C10U U49G	< 1e-05	< 1e-05	–	–
C8G A12U G63U	< 1e-05	< 1e-05	< 1e-05	–
G9U G13C A42U	< 1e-05	< 1e-05	< 1e-05	–
C10A A12G C16A U47C G63A C67G	< 1e-05	< 1e-05	–	–
G7A C8A U49G	< 1e-05	–	< 1e-05	< 1e-05
G9C G38C	< 1e-05	–	–	–
A6U G44U U55C	< 1e-05	< 1e-05	< 1e-05	–
A6U G35U A42C	< 1e-05	< 1e-05	–	–
C8A C10G C34A	< 1e-05	< 1e-05	< 1e-05	–
C10U G51A U55C	< 1e-05	–	< 1e-05	–
C10U C11U G13A	< 1e-05	< 1e-05	< 1e-05	–
G7U A14C G66U	< 1e-05	–	< 1e-05	–
G9U G40U U46G G62C	< 1e-05	< 1e-05	< 1e-05	–
C11G A14U G35U C70G	0.000125 ± 4.5e-05	0.000575 ± 0.0002	0.00022 ± 8.2e-05	0.000257 ± 5.4e-05
G7A G9U C58A	< 1e-05	< 1e-05	–	–
C8U C34G G41A	< 1e-05	< 1e-05	–	–
C8G A14G A15U G41C U47G U56A	< 1e-05	< 1e-05	< 1e-05	–
C10G C50G C67U	9.87e-05 ± 2.3e-05	–	0.000267 ± 5.1e-05	–
G9C C10U G41A G43U	< 1e-05	< 1e-05	–	–
C8G G13A U54A G62A	< 1e-05	< 1e-05	–	–
G9A G43C G44C G62U	< 1e-05	< 1e-05	< 1e-05	–
C10A U30A	< 1e-05	< 1e-05	< 1e-05	< 1e-05
G7A G32U C34U	< 1e-05	–	–	–
G7U C10U G35A C68G	0.000125 ± 5.5e-05	–	–	0.000284 ± 0.00012
G7U G41C A52G	< 1e-05	< 1e-05	< 1e-05	< 1e-05

Variant	self-cleavage kobs at 160 uM GlcN6P (glucosamine-6-phosphate [1]) [s⁻¹]	self-cleavage kobs at 640 uM GlcN6P (glucosamine-6-phosphate [2]) [s⁻¹]	self-cleavage kobs at 2500 uM GlcN6P (glucosamine-6-phosphate [3]) [s⁻¹]	self-cleavage kobs at 10000 uM GlcN6P (glucosamine-6-phosphate [4]) [s⁻¹]
C11G A15C A33C C34G U55C	< 1e-05	< 1e-05	–	–
G9U C68G	< 1e-05	–	< 1e-05	< 1e-05
C10A C50G U65G	0.000143 ± 2.6e-05	0.000121 ± 4.2e-05	4.21e-05 ± 1.9e-05	–
G9A C61G	< 1e-05	< 1e-05	–	–
G7C A14C U46G	< 1e-05	< 1e-05	< 1e-05	–
C10U G13C C16G G32A	< 1e-05	–	–	–
G9A C34A G59C	< 1e-05	< 1e-05	< 1e-05	–
G7C U47A	< 1e-05	< 1e-05	–	< 1e-05
G9C U56C C67U C71G	< 1e-05	< 1e-05	< 1e-05	–
G9A C58A	< 1e-05	< 1e-05	< 1e-05	–
G7U G35A G37C U46G U47A C70G	< 1e-05	< 1e-05	< 1e-05	–
C8A A12C	< 1e-05	< 1e-05	< 1e-05	< 1e-05
C8A G60A C68A	< 1e-05	–	< 1e-05	–
G9A U31C G51U G59U C68G	< 1e-05	–	–	–
C8A C11A	< 1e-05	< 1e-05	–	< 1e-05
G9C G32U A39U G41U	< 1e-05	< 1e-05	< 1e-05	–
C10A C34G A36G A39C U65A	< 1e-05	–	< 1e-05	–
C8U U56C	< 1e-05	< 1e-05	< 1e-05	< 1e-05
C8A C34U G40A A52U	< 1e-05	< 1e-05	< 1e-05	< 1e-05
G7C A53C	< 1e-05	< 1e-05	< 1e-05	–
C8G C11G U54A	< 1e-05	–	< 1e-05	–
C11A C34U G60U C71A	< 1e-05	–	< 1e-05	–
G9A C50A	< 1e-05	< 1e-05	< 1e-05	< 1e-05
G7U G43U C68U	< 1e-05	< 1e-05	< 1e-05	< 1e-05
A6U G43U U57A	< 1e-05	< 1e-05	< 1e-05	–

Variant	self-cleavage kobs at 160 uM GlcN6P (glucosamine-6-phosphate [1]) [s⁻¹]	self-cleavage kobs at 640 uM GlcN6P (glucosamine-6-phosphate [2]) [s⁻¹]	self-cleavage kobs at 2500 uM GlcN6P (glucosamine-6-phosphate [3]) [s⁻¹]	self-cleavage kobs at 10000 uM GlcN6P (glucosamine-6-phosphate [4]) [s⁻¹]
C10A C34A G37A U46C C67G	< 1e-05	–	–	–
C11G U49G U57C	< 1e-05	–	–	–
C10A A14G U69G	0.000148 ± 5.1e-05	0.000195 ± 7.6e-05	6.53e-05 ± 2.3e-05	–
C10A A12U U46A	< 1e-05	< 1e-05	–	–
G7A A48U C71U	< 1e-05	< 1e-05	< 1e-05	–
G7C C16U G44U	< 1e-05	–	–	–
G9C C11G C61G G63U	< 1e-05	–	< 1e-05	–
C10A G13U A15G G40U U46G	< 1e-05	< 1e-05	< 1e-05	–
C8G G51A U55G	< 1e-05	< 1e-05	–	–
C11U A15G C34U U57C C71A	< 1e-05	< 1e-05	< 1e-05	–
C10A A15G C34A G44A C67A C68A	< 1e-05	< 1e-05	< 1e-05	–
C8A G9U C19A G29C C34A A48C	< 1e-05	–	< 1e-05	–
C8U C16G G51U	< 1e-05	< 1e-05	< 1e-05	–
C11G U46G G62A	< 1e-05	< 1e-05	< 1e-05	< 1e-05
C10G C34G G38A U47A	< 1e-05	–	–	–
C8A A42U	< 1e-05	< 1e-05	–	–
A6U G29A U54G	< 1e-05	–	–	–
C8G A14U G66U	< 1e-05	< 1e-05	–	–
C8G A39U U69A	< 1e-05	–	–	–
G7U G38C C50A	< 1e-05	< 1e-05	–	–
C10A G41C U46G C68U	< 1e-05	< 1e-05	< 1e-05	–
G7C C68U	< 1e-05	< 1e-05	< 1e-05	< 1e-05
A6U G43C U57G C67U	< 1e-05	–	< 1e-05	< 1e-05
A6U G7U G35U U54A	< 1e-05	< 1e-05	< 1e-05	–
G9U G38A	< 1e-05	< 1e-05	–	–

Variant	self-cleavage kobs at 160 uM GlcN6P (glucosamine-6-phosphate [1]) [s⁻¹]	self-cleavage kobs at 640 uM GlcN6P (glucosamine-6-phosphate [2]) [s⁻¹]	self-cleavage kobs at 2500 uM GlcN6P (glucosamine-6-phosphate [3]) [s⁻¹]	self-cleavage kobs at 10000 uM GlcN6P (glucosamine-6-phosphate [4]) [s⁻¹]
C8U G59U G63C	< 1e-05	< 1e-05	< 1e-05	–
C8G G63A C70G	< 1e-05	< 1e-05	< 1e-05	–
C8A G59A	< 1e-05	< 1e-05	< 1e-05	< 1e-05
C11A G43U U49C C61A G63C	< 1e-05	–	< 1e-05	–
C8G G9U G29C G32C A52C	< 1e-05	–	< 1e-05	–
C8A A36C A42C G66C C67A	< 1e-05	–	< 1e-05	–
C11G U31A U47G	< 1e-05	–	–	–
C8G C50A	< 1e-05	–	< 1e-05	< 1e-05
G9U G40C G51A	< 1e-05	< 1e-05	< 1e-05	–
G9U A53C	< 1e-05	< 1e-05	–	< 1e-05
G7U G40C G44U U47C G51U	< 1e-05	–	< 1e-05	–
C8G G38A	< 1e-05	< 1e-05	< 1e-05	< 1e-05
G9A G32C C67U	< 1e-05	< 1e-05	–	–
G9U G13A	< 1e-05	< 1e-05	–	< 1e-05
G9C A14G G59U	< 1e-05	–	–	–
C11G C67A C71G	4.73e-05 ± 1.9e-05	0.000132 ± 3.5e-05	0.000135 ± 4.2e-05	–
C8G G66A	< 1e-05	< 1e-05	< 1e-05	–
C8G G21U C34A A64G	< 1e-05	< 1e-05	< 1e-05	–
G7U G40U	< 1e-05	< 1e-05	< 1e-05	< 1e-05
C8U U49C	< 1e-05	< 1e-05	< 1e-05	< 1e-05
C10G G32C A48U C61G	< 1e-05	< 1e-05	–	–
C11U C70G	0.000313 ± 0.00014	9e-05 ± 9.9e-06	0.000104 ± 8.7e-06	6.56e-05 ± 5.5e-06
